{"source": "the supplement of paper PMC10567573", "parents": {"B1": {"name": "TMEM106C (parent)", "chain": "SEQLVNFTGKAEMGGPFSYVYFFC"}}}
{"variants_of": "B1", "assay": "protein stability index of a GFP-peptide fusion (GPS, HEK-293T) (PSI 1-6); higher = more stable", "settings": "c terminus: a fixed tail appended"}
{"variant": "SEQLVNHTGKAEMGGPFSYVYFFC", "note": "[F7H]", "protein stability index": 2.79}
{"variant": "SEQLVNRTGKAEMGGPFSYVYFFC", "note": "[F7R]", "protein stability index": 2.32}
{"variant": "SEQLVNVTGKAEMGGPFSYVYFFC", "note": "[F7V]", "protein stability index": 2.45}
{"variant": "SEQLVNLTGKAEMGGPFSYVYFFC", "note": "[F7L]", "protein stability index": 3.36}
{"variant": "SEQLVNQTGKAEMGGPFSYVYFFC", "note": "[F7Q]", "protein stability index": 1.74}
{"variant": "SEQLVNYTGKAEMGGPFSYVYFFC", "note": "[F7Y]", "protein stability index": 3.39}
{"variant": "SEQLVNITGKAEMGGPFSYVYFFC", "note": "[F7I]", "protein stability index": 2.32}
{"variant": "SEQLVNNTGKAEMGGPFSYVYFFC", "note": "[F7N]", "protein stability index": 2.37}
{"variant": "SEQLVNGTGKAEMGGPFSYVYFFC", "note": "[F7G]", "protein stability index": 1.68}
{"variant": "SEQLVNPTGKAEMGGPFSYVYFFC", "note": "[F7P]", "protein stability index": 3.16}
{"variant": "SEQLVNETGKAEMGGPFSYVYFFC", "note": "[F7E]", "protein stability index": 4.73}
{"variant": "SEQLVNDTGKAEMGGPFSYVYFFC", "note": "[F7D]", "protein stability index": 2.32}
{"variant": "SEQLVNSTGKAEMGGPFSYVYFFC", "note": "[F7S]", "protein stability index": 2.03}
{"variant": "SEQLVNKTGKAEMGGPFSYVYFFC", "note": "[F7K]", "protein stability index": 2.69}
{"variant": "SEQLVNCTGKAEMGGPFSYVYFFC", "note": "[F7C]", "protein stability index": 3.4}
{"variant": "SEQLVNMTGKAEMGGPFSYVYFFC", "note": "[F7M]", "protein stability index": 1.98}
{"variant": "SEQLVNTTGKAEMGGPFSYVYFFC", "note": "[F7T]", "protein stability index": 3.16}
{"variant": "SEQLVNWTGKAEMGGPFSYVYFFC", "note": "[F7W]", "protein stability index": 2.51}
{"variant": "SEQLTNFTGKAEMGGPFSYVYFFC", "note": "[V5T]", "protein stability index": 1.81}
{"variant": "SEQLNNFTGKAEMGGPFSYVYFFC", "note": "[V5N]", "protein stability index": 2.58}
{"variant": "SEQLQNFTGKAEMGGPFSYVYFFC", "note": "[V5Q]", "protein stability index": 2.89}
{"variant": "SEQLSNFTGKAEMGGPFSYVYFFC", "note": "[V5S]", "protein stability index": 2.45}
{"variant": "SEQLYNFTGKAEMGGPFSYVYFFC", "note": "[V5Y]", "protein stability index": 3.6}
{"variant": "SEQLPNFTGKAEMGGPFSYVYFFC", "note": "[V5P]", "protein stability index": 4.22}
{"variant": "SEQLRNFTGKAEMGGPFSYVYFFC", "note": "[V5R]", "protein stability index": 2.8}
{"variant": "SEQLWNFTGKAEMGGPFSYVYFFC", "note": "[V5W]", "protein stability index": 4.3}
{"variant": "SEQLVNFKGKAEMGGPFSYVYFFC", "note": "[T8K]", "protein stability index": 2.4}
{"variant": "SEQLVNFLGKAEMGGPFSYVYFFC", "note": "[T8L]", "protein stability index": 4.14}
{"variant": "SEQLVNFMGKAEMGGPFSYVYFFC", "note": "[T8M]", "protein stability index": 2.02}
{"variant": "SEQLVNFGGKAEMGGPFSYVYFFC", "note": "[T8G]", "protein stability index": 2.76}
{"variant": "SEQLVNFVGKAEMGGPFSYVYFFC", "note": "[T8V]", "protein stability index": 2.92}
{"variant": "SEQLVNFAGKAEMGGPFSYVYFFC", "note": "[T8A]", "protein stability index": 3.06}
{"variant": "SEQLVNFWGKAEMGGPFSYVYFFC", "note": "[T8W]", "protein stability index": 2.44}
{"variant": "SEQLVNFIGKAEMGGPFSYVYFFC", "note": "[T8I]", "protein stability index": 3.12}
{"variant": "SEQLVNFCGKAEMGGPFSYVYFFC", "note": "[T8C]", "protein stability index": 3.08}
{"variant": "SEQLVNFRGKAEMGGPFSYVYFFC", "note": "[T8R]", "protein stability index": 2.65}
{"variant": "SEQLVNFSGKAEMGGPFSYVYFFC", "note": "[T8S]", "protein stability index": 2.29}
{"variant": "SEQLVNFHGKAEMGGPFSYVYFFC", "note": "[T8H]", "protein stability index": 3.31}
{"variant": "SEQLVNFNGKAEMGGPFSYVYFFC", "note": "[T8N]", "protein stability index": 2.63}
{"variant": "SEQLVNFFGKAEMGGPFSYVYFFC", "note": "[T8F]", "protein stability index": 1.62}
{"variant": "SEQLVNFPGKAEMGGPFSYVYFFC", "note": "[T8P]", "protein stability index": 2.54}
{"variant": "SEQLVNFEGKAEMGGPFSYVYFFC", "note": "[T8E]", "protein stability index": 2.29}
{"variant": "SEQLVNFQGKAEMGGPFSYVYFFC", "note": "[T8Q]", "protein stability index": 3.6}
{"variant": "SEQLVNFYGKAEMGGPFSYVYFFC", "note": "[T8Y]", "protein stability index": 3.78}
{"variant": "SEQLVNFTGDAEMGGPFSYVYFFC", "note": "[K10D]", "protein stability index": 2.33}
{"variant": "SEQLVNFTGEAEMGGPFSYVYFFC", "note": "[K10E]", "protein stability index": 2.94}
{"variant": "SEQLVNFTGAAEMGGPFSYVYFFC", "note": "[K10A]", "protein stability index": 2.02}
{"variant": "SEQLVNFTGNAEMGGPFSYVYFFC", "note": "[K10N]", "protein stability index": 2.25}
{"variant": "SEQLVNFTGGAEMGGPFSYVYFFC", "note": "[K10G]", "protein stability index": 4.37}
{"variant": "SEQLVNFTGIAEMGGPFSYVYFFC", "note": "[K10I]", "protein stability index": 3.15}
{"variant": "SEQLVNFTGFAEMGGPFSYVYFFC", "note": "[K10F]", "protein stability index": 2.92}
{"variant": "SEQLVNFTGMAEMGGPFSYVYFFC", "note": "[K10M]", "protein stability index": 2.72}
{"variant": "SEQLVNFTGPAEMGGPFSYVYFFC", "note": "[K10P]", "protein stability index": 2.32}
{"variant": "SEQLVNFTGCAEMGGPFSYVYFFC", "note": "[K10C]", "protein stability index": 2.55}
{"variant": "SEQLVNFTGHAEMGGPFSYVYFFC", "note": "[K10H]", "protein stability index": 2.51}
{"variant": "SEQLVNFTGLAEMGGPFSYVYFFC", "note": "[K10L]", "protein stability index": 1.94}
{"variant": "SEQLVSFTGKAEMGGPFSYVYFFC", "note": "[N6S]", "protein stability index": 2.52}
{"variant": "SEQLVFFTGKAEMGGPFSYVYFFC", "note": "[N6F]", "protein stability index": 2.56}
{"variant": "SEQLVDFTGKAEMGGPFSYVYFFC", "note": "[N6D]", "protein stability index": 2.88}
{"variant": "SEQLVKFTGKAEMGGPFSYVYFFC", "note": "[N6K]", "protein stability index": 2.82}
{"variant": "SEQLVIFTGKAEMGGPFSYVYFFC", "note": "[N6I]", "protein stability index": 2.71}
{"variant": "SEQLVQFTGKAEMGGPFSYVYFFC", "note": "[N6Q]", "protein stability index": 2.39}
{"variant": "SEQLVRFTGKAEMGGPFSYVYFFC", "note": "[N6R]", "protein stability index": 2.31}
{"variant": "SEQLVAFTGKAEMGGPFSYVYFFC", "note": "[N6A]", "protein stability index": 2.28}
{"variant": "SEQLVLFTGKAEMGGPFSYVYFFC", "note": "[N6L]", "protein stability index": 1.38}
{"variant": "SEQLVPFTGKAEMGGPFSYVYFFC", "note": "[N6P]", "protein stability index": 1.58}
{"variant": "SEQLVGFTGKAEMGGPFSYVYFFC", "note": "[N6G]", "protein stability index": 3.12}
{"variant": "SEQLVHFTGKAEMGGPFSYVYFFC", "note": "[N6H]", "protein stability index": 1.97}
{"variant": "SEQLVYFTGKAEMGGPFSYVYFFC", "note": "[N6Y]", "protein stability index": 2.19}
{"variant": "SEQLVVFTGKAEMGGPFSYVYFFC", "note": "[N6V]", "protein stability index": 2.18}
{"variant": "SEQLVCFTGKAEMGGPFSYVYFFC", "note": "[N6C]", "protein stability index": 3.24}
{"variant": "SEQLVEFTGKAEMGGPFSYVYFFC", "note": "[N6E]", "protein stability index": 3.28}
{"variant": "SEQLVMFTGKAEMGGPFSYVYFFC", "note": "[N6M]", "protein stability index": 3.44}
{"variant": "SEQLVWFTGKAEMGGPFSYVYFFC", "note": "[N6W]", "protein stability index": 2.96}
{"variant": "SEQLVTFTGKAEMGGPFSYVYFFC", "note": "[N6T]", "protein stability index": 2.97}
{"variant": "SEQLVNFTCKAEMGGPFSYVYFFC", "note": "[G9C]", "protein stability index": 2.05}
{"variant": "SEQLVNFTHKAEMGGPFSYVYFFC", "note": "[G9H]", "protein stability index": 3.07}
{"variant": "SEQLVNFTEKAEMGGPFSYVYFFC", "note": "[G9E]", "protein stability index": 2.46}
{"variant": "SEQLVNFTTKAEMGGPFSYVYFFC", "note": "[G9T]", "protein stability index": 3.27}
{"variant": "SEQLVNFTKKAEMGGPFSYVYFFC", "note": "[G9K]", "protein stability index": 2.89}
{"variant": "SEQLVNFTDKAEMGGPFSYVYFFC", "note": "[G9D]", "protein stability index": 2.19}
{"variant": "SEQLVNFTMKAEMGGPFSYVYFFC", "note": "[G9M]", "protein stability index": 2.47}
{"variant": "SEQLVNFTIKAEMGGPFSYVYFFC", "note": "[G9I]", "protein stability index": 2.8}
{"variant": "SEQLVNFTQKAEMGGPFSYVYFFC", "note": "[G9Q]", "protein stability index": 2.71}
{"variant": "SEQLVNFTFKAEMGGPFSYVYFFC", "note": "[G9F]", "protein stability index": 2.01}
{"variant": "SEQLVNFTYKAEMGGPFSYVYFFC", "note": "[G9Y]", "protein stability index": 3.05}
{"variant": "SEQLVNFTLKAEMGGPFSYVYFFC", "note": "[G9L]", "protein stability index": 2.21}
{"variant": "SEQLVNFTSKAEMGGPFSYVYFFC", "note": "[G9S]", "protein stability index": 2.97}
{"variant": "SEQLVNFTVKAEMGGPFSYVYFFC", "note": "[G9V]", "protein stability index": 3.09}
{"variant": "SEQLVNFTRKAEMGGPFSYVYFFC", "note": "[G9R]", "protein stability index": 3.01}
{"variant": "SEQLVNFTAKAEMGGPFSYVYFFC", "note": "[G9A]", "protein stability index": 3.2}
{"variant": "SEQLVNFTNKAEMGGPFSYVYFFC", "note": "[G9N]", "protein stability index": 3.19}
{"variant": "SEQLVNFTWKAEMGGPFSYVYFFC", "note": "[G9W]", "protein stability index": 2.95}
{"variant": "SEQLVNFTPKAEMGGPFSYVYFFC", "note": "[G9P]", "protein stability index": 2.28}
